This note sets out measurements from patent US20050025768A1 (Biogen, published 2005).

T1: human MCP-2 (human, UniProt P80075 24-99)
T1 construct: also called hMCP-2; huMCP-2
T1 sequence (looked up): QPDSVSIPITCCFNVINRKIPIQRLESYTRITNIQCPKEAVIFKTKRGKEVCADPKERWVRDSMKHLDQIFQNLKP

T2: human fractalkine (human, UniProt P78423 25-100, limits assumed)
T2 sequence (looked up): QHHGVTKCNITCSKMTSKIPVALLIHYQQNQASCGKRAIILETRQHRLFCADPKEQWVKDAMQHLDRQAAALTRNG

T3: human DC-CK (human, UniProt P55774 21-89, limits assumed)
T3 construct: reading it as DC-CK1/CCL18 is mine
T3 sequence (looked up): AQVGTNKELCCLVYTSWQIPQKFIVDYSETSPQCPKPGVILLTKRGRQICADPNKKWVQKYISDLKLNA

B1: 1A1 (antibody, IgG1, V domains shown)
VH: EVQLQQSGAELVRSGASVKLSCTASGFNIKDNYMHWVKQRPEQGLEWIGWIDPENGDTEYAPKFQGKATMTADTSSNTAYLQLSSLTSEDTAVYYCNTWAYYGTSYGGFAYWGQGTTVTVSS
VL: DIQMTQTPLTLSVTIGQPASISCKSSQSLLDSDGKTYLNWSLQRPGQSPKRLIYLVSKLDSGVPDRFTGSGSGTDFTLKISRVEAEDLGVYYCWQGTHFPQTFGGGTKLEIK
notes: ATCC PTA-3990; also called 1A1.1; 1A1 mAb
B2: 11K2 (antibody, IgG1, V domains shown)
VH: EVQLQQSGAELVKAGASVKLSCPASGLNIKDTYMHWVKQRPEQGLEWIGRIDPANGNTKFDPKFQGKATITADTSSNTAYLQLSSLTSEDTAVYYCARGVFGFFDYWGQGTTLTVSS
VL: DIQMTQSSSSFSVSLGDRVTITCKATEDIYNRLAWYQQKPGSAPRLLISGATSLETGVPSRFSGSGSGKDYTLSITSLQTEDVATYYCQQFWSAPYTFGGGTKLEIK
notes: ATCC PTA-3987; also called 11K2.1; 11K2 mAb
B3: 5A13 (antibody, IgG1, V domains shown)
VH: B2 VH
VL: B2 VL
notes: IgG1; ATCC PTA-3995; also called 5A13.1
B4: 6I5 (antibody, IgG1, V domains shown)
VH: B2 VH
VL: B2 VL
notes: IgG1; ATCC PTA-3986; also called 615; 6I5.1
B5: 7H1 (antibody, IgG1, V domains shown)
VH: B2 VH
VL: B2 VL
notes: IgG1; ATCC PTA-3985; also called 7H1.1
B6: 4N4 (antibody, IgG1, V domains shown)
VH: B2 VH
VL: B2 VL
notes: IgG1; ATCC PTA-3994; also called 4N4.1
B7: 6D21 (antibody, IgG1, V domains shown)
VH: B2 VH
VL: B2 VL
notes: IgG1; ATCC PTA-3989; also called 6D21.1
B8: 11K2 Fab (Fab, V domains shown)
VH: B2 VH
VL: B2 VL
notes: Fab of the murine IgG1 mAb; also called Fab fragment of 11K2
B9: 1A1 Fab (Fab, V domains shown)
VH: B1 VH
VL: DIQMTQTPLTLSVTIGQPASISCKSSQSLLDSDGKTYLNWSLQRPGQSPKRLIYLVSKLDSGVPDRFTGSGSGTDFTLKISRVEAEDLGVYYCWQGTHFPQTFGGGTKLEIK
notes: Fab of the murine IgG1 mAb; also called Fab fragment of 1A1

For the first assay, the target named is T1, human MCP-2. The assay is described as follows: KinExA kinetic exclusion assay, in solution; whole mAb (bivalent IgG1), not Fab. The method, then:
(§1) Polymethylmethacrylate beads activated with NHS were coated with 10 μg recombinant human MCP-1 in 1 ml buffer. The beads were packed into a column in the KinExA instrument for each sample. This packed bead column is able to capture free MCP mAb or Fab flowed through the column. The amount of free mAb or Fab in solution was determined using a secondary goat anti-mouse heavy and light chain IgG-Cy5 conjugate.
(§2) A fixed amount of 11K2 mAb, 1A1 mAb, 11K2 Fab, or 1A1 Fab was incubated with various amounts of human MCP-1, MCP-2 or MCP-3 for three hours. The amount of uncomplexed free antibody remaining in solution was determined by flowing these mixtures over the MCP-1-loaded bead column and labeling with the Cy5 secondary antibody. The fluorescent signal was plotted against the MCP concentration and the affinity was determined using a quadratic curve fit
Consider B1, for which the Kd worked out at 0.0012 nM.

In a further assay the target is T4, cynomolgus MCP-1 (cynomolgus, UniProt P61274 24-99).
T4 construct: also called primate MCP-1
Put plainly: ELISA, 1 ug/ml synthetic chemokine coated, mAb 10 ug/ml. As for the experimental part:
(§3) MaxiSorp 384 well plates were coated with 15-20 μl antigen in PBS. Recombinant purified human antigens included: MCP-1, MCP-2, MCP-3, MCP-4, IL-8, eotaxin, fractalkine, Gcp-2, DC-CK (Gcp-2 and DC-CK are also chemokines). Plates were incubated with antigen for 2 hours at 37° C. or overnight at 4° C. Non-specific sites were blocked with 80 μl/well of 1% BSA/PBS for 1 hour at room temperature. Plates were washed and 15 μl of hybridoma supernatant was added to each well and incubated for 1 hour at room temperature. Plates were washed and wells were incubated with 20 μl/well of a 1:25 000 dilution of goat anti-mouse IgG peroxidase conjugate (Jackson Catalog Number 515-036-003). Plates were incubated for 1 hour at room temperature, washed, and 20 μl/well of substrate (TMB, tetramethylbenzidine, Jackson, Catalog Number 515-036-062) was added. Reaction was allowed to proceed and stopped by addition of 20 μl/well of 2M H₂SO₄. Reactive clones were picked for further analysis. Isotyping of hybridoma supernatants was performed by antigen-dependent ELISA. Briefly, wells were coated with 50 μl of human MCP-1 (5 μg/ml) for 1 hour at 37° C. Wells were washed 4 times and blocked with PBS/1% BSA. Isotyping of hybridoma supernatants was then performed using a mouse immunoglobulin screening/isotyping kit (Zymed Laboratories, San Francisco, Calif.) as recommended by the manufacturer.
(§4) In addition, both 1A1 and 11K2 mAbs recognize primate MCP-1. Plates were coated with 1 μg/ml of chemically synthesized chemokines (corresponding to the cynomolgus and rhesus MCP-1 sequences) and probed with 10 μg/ml of monoclonal antibodies, including MOPC21, 1l K2, 3N10, 1A1, D9, and 1M11, as described above.
In general terms: ELISA stands for enzyme-linked immunosorbent assay.
As to B1, the binding result is recorded as “binds”.
On the same count and under the same terms, under B2 stands “binds”.

Another assay deals with T5, rhesus MCP-1 (rhesus, UniProt P61275 24-99).
T5 construct: also called primate MCP-1
Described as above. As for the experimental part: as §3, §4
For B1, the binding result was “binds”.
Same read-out and setting: under B2 stands “binds”.

In the next assay the target is human Gcp-2 (human, UniProt P80162 38-114, limits assumed). The assay is described as follows: ELISA, hybridoma supernatant. The method, then:
as §3
In the case of B1, the binding result was “no binding”.
Still for that read-out and setting: the entry for B2 is “no binding”.
Still for that read-out and setting: the entry for B3 is “no binding”; for B4 it is “no binding”; for B5 it is “no binding”.
Still for that read-out and setting: under B6 stands “no binding”; under B7, “no binding”.

The target of the next assay is T2, human fractalkine. The assay is described as follows: ELISA, hybridoma supernatant. As for the experimental part: as §3
Turning to B1, the binding result is listed as “no binding”.
Take B2: the binding result is reported as “no binding”.
As to B3, the binding result was “no binding”.
Same read-out and setting: under B4 stands “no binding”.
Take B5: the binding result is given as “no binding”.
Still for that read-out and setting: the entry for B6 is “no binding”.
Same read-out and setting: under B7 stands “no binding”.

The target of the next assay is T3, human DC-CK. Put plainly: ELISA, hybridoma supernatant. The method, then:
as §3
Take B1: the binding result was “no binding”.
Turning to B2, the binding result was “no binding”.
For the molecule B3, the binding result is reported as “no binding”.
The same measure, in the same setting: the entry for B4 is “no binding”; for B5 it is “no binding”.
Still for that read-out and setting: the entry for B6 is “no binding”; for B7 it is “no binding”.

A further assay addresses T6, human eotaxin (human, UniProt P51671 24-97).
T6 construct: also called hEotaxin
Put plainly: ELISA, purified mAb. As for the experimental part:
(§5) ELISA specificity assays were performed using purified monoclonal antibodies to confirm the binding specificities of the supernatant MCP-specific monoclonal antibodies described above. Antibodies were purified by Protein A affinity column chromatography, according to standard methods known in the art.
(§6) ELISA was performed as previously described in Example 1. Briefly, MaxiSorp 384 well plates were coated with 15-20 μl antigen in PBS. Recombinant purified human antigens included: MCP-1, MCP-2, MCP-3, MCP-4, IL-8, eotaxin, murine MCP-1 (JE), murine MCP-3, murine MCP-5, and rat MCP-1. All antigens, including MCP-3, were immobilized. Plates were washed and purified monoclonal antibody (10 μg/ml) was added to each well and incubated for 1 hour at room temperature. Plates were washed and wells were incubated with 20 μl/well of a 1:25,000 dilution of goat anti-mouse IgG peroxidase conjugate (Jackson Catalog Number 515-036-003). Plates were incubated for 1 hour at room temperature, washed, and 20 μl/well of substrate (TMB, tetramethylbenzidine, Jackson, Catalog Number 515-036-062) was added. Reaction was allowed to proceed and stopped by addition of 20 μl/well of 2M H₂SO₄. Antibodies 1A1 bound specifically to hMCP-1, hMCP-2, hMCP-3, and mMCP-1. Antibodies 11K2, 4N4, 5A 13, 6D21, 6I5, and 7H1 bound specifically to hMCP-1, hMCP-2, hMCP-3, mMCP-1, mMCP-3, and mMCP-5.
For B1, the binding result is recorded as “no binding (tested: 10 ug/ml)”.
On to B2, for which the binding result is listed as “no binding (tested: 10 ug/ml)”.
Regarding B3, the binding result is recorded as “no binding (tested: 10 ug/ml)”.
Still for that read-out and setting: the entry for B4 is “no binding (tested: 10 ug/ml)”; for B5 it is “no binding (tested: 10 ug/ml)”; for B6 it is “no binding (tested: 10 ug/ml)”.
On the same count and under the same terms, under B7 stands “no binding (tested: 10 ug/ml)”.

Another assay addresses T7, human MCP-4 (human, UniProt Q99616 24-98, limits assumed).
T7 construct: also called hMCP-4
The assay is described as follows: ELISA, purified mAb. As for the experimental part:
as §5, §6
Turning to B1, the binding result is given as “no binding (tested: 10 ug/ml)”.
Consider B2, for which the binding result is listed as “no binding (tested: 10 ug/ml)”.
On the same count and under the same terms, under B3 stands “no binding (tested: 10 ug/ml)”; under B4, “no binding (tested: 10 ug/ml)”; under B5, “no binding (tested: 10 ug/ml)”.
Same read-out and setting: the entry for B6 is “no binding (tested: 10 ug/ml)”; for B7 it is “no binding (tested: 10 ug/ml)”.

The target in a further assay is T8, human IL-8 (human, UniProt P10145 28-99, limits assumed).
T8 construct: also called hIL8
Put plainly: ELISA, purified mAb. The method, then:
as §5, §6
B1: the binding result was “no binding (tested: 10 ug/ml)”.
As for B2, the binding result is “no binding (tested: 10 ug/ml)”.
Still for that read-out and setting: under B3 stands “no binding (tested: 10 ug/ml)”.
For B4, the binding result is “no binding (tested: 10 ug/ml)”.
Same read-out and setting: under B5 stands “no binding (tested: 10 ug/ml)”; under B6, “no binding (tested: 10 ug/ml)”; under B7, “no binding (tested: 10 ug/ml)”.

The next assay concerns the target T1, human MCP-2. The assay is described as follows: KinExA kinetic exclusion assay, in solution. As for the experimental part: as §1, §2
A general note: In KinExA the mixture passes briefly over coated beads that capture the unbound partner.
Molecule B2 registered a Kd of 0.018 nM.
In the case of B8, the Kd came out at 0.43 nM.

Another assay has as its target T9, human MCP-1 (human, UniProt P13500 24-99).
T9 construct: also called hMCP-1; huMCP-1
The assay is described as follows: KinExA kinetic exclusion assay, in solution. As for the experimental part: as §1, §2
Take B1: the Kd was < 0.0007 nM.
The molecule B9 registered a Kd of 0.013 nM.
Still for that read-out and setting: the figure for B2 is < 0.0004 nM; for B8 it is 0.011 nM.

The target of another assay is T1, human MCP-2. The assay is described as follows: KinExA kinetic exclusion assay, in solution; Fab (monovalent), not whole mAb. As for the experimental part: as §1, §2
As for B9, the Kd came out at 0.32 nM.
